Data on nine substances can be found in PMC12990809.

Assay in all cases: pulldown
Common to all, as to conditions: 20 nM protein, 1.5 uM RNA pool; 20 mM HEPES pH 7.8, 70 mM KCl, 10 mM NaCl, 10% glycerol, 2 mM DTT, 0.1 ug/uL BSA; 30 min, 4 C

For series [1], the target named is T1, LmjF.34.4560 (Leishmania major) (UniProt Q4Q285).
T1 sequence: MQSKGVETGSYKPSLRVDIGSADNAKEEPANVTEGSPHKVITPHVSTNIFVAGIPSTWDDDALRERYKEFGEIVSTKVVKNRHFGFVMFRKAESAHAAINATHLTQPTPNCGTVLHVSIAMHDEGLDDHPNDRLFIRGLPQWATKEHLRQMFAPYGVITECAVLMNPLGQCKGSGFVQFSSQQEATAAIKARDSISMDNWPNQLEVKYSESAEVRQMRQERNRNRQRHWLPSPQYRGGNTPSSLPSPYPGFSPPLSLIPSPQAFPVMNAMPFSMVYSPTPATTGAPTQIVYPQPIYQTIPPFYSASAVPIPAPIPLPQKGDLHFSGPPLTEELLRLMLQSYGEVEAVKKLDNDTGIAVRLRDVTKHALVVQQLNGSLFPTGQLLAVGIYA

Series [2] addresses estExt_fgenesh1_pg.C_Chr_03.00010087 (Ostreococcus tauri) (UniProt A0A096P7J9).
Series [3] has as its target T2, NEMVEDRAFT_v1g141408 (Nematostella vectensis) (UniProt A7T170).
T2 sequence: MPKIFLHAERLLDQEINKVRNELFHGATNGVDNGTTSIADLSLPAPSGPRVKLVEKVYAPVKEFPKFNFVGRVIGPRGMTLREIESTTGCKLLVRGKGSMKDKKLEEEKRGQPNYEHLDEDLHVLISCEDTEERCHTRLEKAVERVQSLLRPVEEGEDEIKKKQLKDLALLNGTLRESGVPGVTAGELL

Series [4] concerns the target T3, ENSMODG00000011916 (Monodelphis domestica) (UniProt F7E028).
T3 sequence: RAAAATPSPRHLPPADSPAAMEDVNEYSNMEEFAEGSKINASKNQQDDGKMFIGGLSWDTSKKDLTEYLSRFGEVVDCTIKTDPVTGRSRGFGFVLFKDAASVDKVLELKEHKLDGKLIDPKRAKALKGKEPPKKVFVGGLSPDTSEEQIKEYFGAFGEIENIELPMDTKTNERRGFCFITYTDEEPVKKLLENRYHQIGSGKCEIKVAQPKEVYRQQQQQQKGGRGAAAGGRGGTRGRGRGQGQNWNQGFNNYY

The target in series [5] is T4, LmjF.29.1340 (Leishmania major) (UniProt E9ADZ3).
T4 sequence: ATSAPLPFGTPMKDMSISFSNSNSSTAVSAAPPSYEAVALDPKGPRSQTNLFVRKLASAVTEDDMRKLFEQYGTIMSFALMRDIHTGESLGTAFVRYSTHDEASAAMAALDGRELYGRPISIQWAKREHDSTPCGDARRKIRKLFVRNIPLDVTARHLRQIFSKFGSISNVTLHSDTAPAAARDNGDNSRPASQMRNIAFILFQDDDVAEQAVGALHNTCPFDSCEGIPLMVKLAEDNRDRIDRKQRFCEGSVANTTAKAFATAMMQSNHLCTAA

Series [6] concerns the target T5, LmjF.29.1350 (Leishmania major) (UniProt E9ADZ4).
T5 sequence: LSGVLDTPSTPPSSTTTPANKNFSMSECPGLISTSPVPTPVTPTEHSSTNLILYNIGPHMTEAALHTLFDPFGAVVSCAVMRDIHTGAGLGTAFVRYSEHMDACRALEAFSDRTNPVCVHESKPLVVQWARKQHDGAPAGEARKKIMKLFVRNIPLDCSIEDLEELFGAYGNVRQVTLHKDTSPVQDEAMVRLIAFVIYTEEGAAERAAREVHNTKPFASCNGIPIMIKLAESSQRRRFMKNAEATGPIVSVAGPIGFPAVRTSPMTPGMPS

Series [7] concerns the target T6, Tb11.01.3940 (Trypanosoma brucei) (UniProt Q382W9).
T6 sequence: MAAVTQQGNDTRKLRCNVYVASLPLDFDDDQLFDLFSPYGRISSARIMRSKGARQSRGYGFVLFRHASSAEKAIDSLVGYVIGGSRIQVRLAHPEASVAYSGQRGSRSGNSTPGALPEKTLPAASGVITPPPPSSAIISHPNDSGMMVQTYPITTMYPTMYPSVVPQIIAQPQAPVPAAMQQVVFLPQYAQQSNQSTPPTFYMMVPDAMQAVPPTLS

Series [8] concerns the target T7, LmjF.29.0680 D253N (Leishmania major) (UniProt E9ADS0).
T7 sequence: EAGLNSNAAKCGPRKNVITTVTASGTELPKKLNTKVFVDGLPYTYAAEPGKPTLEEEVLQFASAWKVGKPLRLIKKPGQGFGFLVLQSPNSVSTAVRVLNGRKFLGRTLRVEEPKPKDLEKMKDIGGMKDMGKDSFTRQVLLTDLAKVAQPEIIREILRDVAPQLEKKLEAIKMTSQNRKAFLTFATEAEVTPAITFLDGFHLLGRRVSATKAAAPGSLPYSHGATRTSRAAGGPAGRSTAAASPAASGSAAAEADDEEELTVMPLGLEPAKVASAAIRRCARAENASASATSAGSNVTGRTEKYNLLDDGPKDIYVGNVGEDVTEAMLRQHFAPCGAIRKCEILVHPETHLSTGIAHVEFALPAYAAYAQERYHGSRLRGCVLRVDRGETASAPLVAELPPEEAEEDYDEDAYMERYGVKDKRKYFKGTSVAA

Series [9] deals with T8, CG1316 G229S (Drosophila melanogaster) (UniProt Q7JRD2).
T8 sequence: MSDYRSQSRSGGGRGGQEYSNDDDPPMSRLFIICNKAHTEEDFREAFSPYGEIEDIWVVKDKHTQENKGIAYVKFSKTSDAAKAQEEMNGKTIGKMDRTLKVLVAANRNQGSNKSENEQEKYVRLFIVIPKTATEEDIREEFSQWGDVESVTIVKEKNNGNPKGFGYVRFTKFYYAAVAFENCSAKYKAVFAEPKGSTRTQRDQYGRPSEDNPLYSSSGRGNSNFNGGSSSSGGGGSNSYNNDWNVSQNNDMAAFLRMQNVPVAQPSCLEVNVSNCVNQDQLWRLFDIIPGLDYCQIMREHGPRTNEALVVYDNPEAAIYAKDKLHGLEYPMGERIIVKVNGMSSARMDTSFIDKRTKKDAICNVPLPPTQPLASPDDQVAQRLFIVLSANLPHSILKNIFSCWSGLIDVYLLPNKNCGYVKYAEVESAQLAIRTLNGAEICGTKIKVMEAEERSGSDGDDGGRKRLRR

Sequence of estExt_fgenesh1_pg.C_Chr_03.00010087 (Ostreococcus tauri) (A0A096P7J9 entry or part of it): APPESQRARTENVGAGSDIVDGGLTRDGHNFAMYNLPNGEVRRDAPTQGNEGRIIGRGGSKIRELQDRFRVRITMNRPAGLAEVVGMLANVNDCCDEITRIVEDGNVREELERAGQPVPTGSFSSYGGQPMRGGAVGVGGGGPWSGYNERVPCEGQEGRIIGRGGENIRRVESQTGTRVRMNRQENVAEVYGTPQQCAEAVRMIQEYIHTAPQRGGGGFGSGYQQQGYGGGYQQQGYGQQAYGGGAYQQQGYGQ

In [1], ACAACU [RNAcompete motif RNCMPT00691] gave a binding signal (z-score (mean of top ten 7-mers)) of 18.4. Regarding ACGCGA [RNAcompete motif RNCMPT00694], in series [2], the binding signal (z-score (mean of top ten 7-mers)) was 10.9. ACUAAC [RNAcompete motif RNCMPT00718] came in with a binding signal (z-score (mean of top ten 7-mers)) in series [3] of 18.9. Substance AGAUAAA [RNAcompete motif RNCMPT00707] came in with a binding signal (z-score (mean of top ten 7-mers)) in series [4] of 8.36. Regarding CAUAGU [RNAcompete motif RNCMPT00712], the binding signal (z-score (mean of top ten 7-mers)) in series [5] worked out at 16.4. In series [6], CAUAGU [RNAcompete motif RNCMPT00713] showed a binding signal (z-score (mean of top ten 7-mers)) of 24.5. In series [7], CUUAACC [RNAcompete motif RNCMPT00695] registered a binding signal (z-score (mean of top ten 7-mers)) of 14.8.

With GAAGGA [RNAcompete motif RNCMPT00720], the binding signal (z-score (mean of top ten 7-mers)) in [8] amounted to 7.49. For the substance GACNGAC [RNAcompete motif RNCMPT00698], in [9], the binding signal (z-score (mean of top ten 7-mers)) is 10.1.
